# From patent US20200069775A1, “BRAIN OSTEOCALCIN RECEPTOR AND COGNITIVE DISORDERS” (The Trustees of Columbia University in the City of New York, priority 2017, published 2020)
# Target: T1, Gpr158 (Mus musculus, UniProt Q8C419)
# T1 sequence (Q8C419 25-1200): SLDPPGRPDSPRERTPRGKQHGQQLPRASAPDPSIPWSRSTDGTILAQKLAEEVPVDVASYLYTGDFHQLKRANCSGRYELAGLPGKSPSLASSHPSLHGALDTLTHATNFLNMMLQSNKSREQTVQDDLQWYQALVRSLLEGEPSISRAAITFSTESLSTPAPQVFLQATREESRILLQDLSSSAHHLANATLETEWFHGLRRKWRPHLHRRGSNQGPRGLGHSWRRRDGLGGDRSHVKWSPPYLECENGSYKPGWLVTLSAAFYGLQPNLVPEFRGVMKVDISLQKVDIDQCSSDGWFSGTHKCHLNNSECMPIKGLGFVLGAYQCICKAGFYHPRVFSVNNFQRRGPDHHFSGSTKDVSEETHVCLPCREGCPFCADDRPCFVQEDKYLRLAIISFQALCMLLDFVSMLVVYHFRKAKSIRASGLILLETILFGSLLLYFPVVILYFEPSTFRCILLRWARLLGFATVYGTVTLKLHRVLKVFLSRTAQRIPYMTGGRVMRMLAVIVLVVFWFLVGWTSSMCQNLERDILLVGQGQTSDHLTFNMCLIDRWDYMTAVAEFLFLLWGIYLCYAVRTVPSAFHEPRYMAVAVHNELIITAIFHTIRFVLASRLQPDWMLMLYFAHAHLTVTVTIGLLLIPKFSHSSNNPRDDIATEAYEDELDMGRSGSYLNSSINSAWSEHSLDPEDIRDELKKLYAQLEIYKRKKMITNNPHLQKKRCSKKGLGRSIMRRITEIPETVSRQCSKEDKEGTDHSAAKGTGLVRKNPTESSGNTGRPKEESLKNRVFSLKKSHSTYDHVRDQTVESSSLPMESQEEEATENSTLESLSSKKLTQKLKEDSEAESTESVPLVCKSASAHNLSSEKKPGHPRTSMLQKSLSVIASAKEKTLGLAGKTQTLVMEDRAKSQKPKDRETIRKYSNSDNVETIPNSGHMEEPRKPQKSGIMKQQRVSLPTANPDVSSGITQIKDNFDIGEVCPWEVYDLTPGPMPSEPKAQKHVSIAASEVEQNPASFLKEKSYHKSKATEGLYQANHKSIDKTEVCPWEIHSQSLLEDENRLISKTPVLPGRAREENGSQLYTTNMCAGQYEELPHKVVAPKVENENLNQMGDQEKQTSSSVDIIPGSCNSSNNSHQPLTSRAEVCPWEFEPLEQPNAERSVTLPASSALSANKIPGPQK
# Experiment: Whole-cell current clamp in CA3 pyramidal neurons of WT and Gpr158−/− hippocampal slices
# Assay type: cell-based
# Design: visually identified pyramidal neurons in the CA3 area of the hippocampus; from tissue; host or cells: coronal hippocampal slices of 3-4 week old male WT and Gpr158-/- mice
# Protocol: Coronal brain slices containing the hippocampus were prepared from wild type and KO mice (3-4 weeks old, male) as previously reporte. Briefly, mice were anesthetized with isoflurane and then decapitated to harvest brains, which were rapidly removed and immersed in an oxygenated cutting solution at 4° C. containing (in mM): sucrose 220, KCl 2.5, CaCl2 1, MgCl2 6, NaH2PO4 1.25, NaHCO3 26, and glucose 10, and adjusted to pH 7.3 with NaOH. Coronal slices containing the hioopcampus (300 μm thick) were cut with a vibratome, trimmed to contain just the hippocampus. After preparation, slices were stored in a holding chamber with an oxygenated (with 5% CO2 and 95% O2) artificial cerebrospinal fluid (ACSF) containing (in mM): NaCl 124, KCl3, CaCl2 2, MgCl2 2, NaH2PO4 1.23, NaHCO3 26, glucose 10, pH 7.4 with NaOH. The slices were eventually transferred to a recording chamber constantly perfused with ACSF at 33° C. at a rate of 2 ml/min after at least a 1 hour recovery in the storage chamber. […] After a stable base of APs were recorded for 10 minutes, osteocalcin was applied to the recorded cells through bath application at a concentration of 10 ng/ml for 5-10 minutes and then washed out with ACSF. […] Action potentials were detected and analyzed with AxoGraph X and plotted with Igor Pro software (WaveMetrics, Lake Oswego, Oreg.).
substance,measurement,setting,value
"osteocalcin: Recombinant osteocalcin bacterially produced, cleaved from the GST subunit; completely undercarboxylated at all three sites; full-length mouse osteocalcin (YLGASVPSPDPLEPTREQCELNPACDELSDQYGLKTAYKRIYGITI)",CA3 pyramidal neurons showing the effect on spontaneous AP frequency,WT,4 of 4 cells
same,action potential frequency in pyramidal cells of the CA3 region,"WT hippocampi, 10 ng/ml",significantly enhanced the action potential frequency
